Experimental data: patent US20240261333A1 (published 2024)

T1: CHCHD3 (human, UniProt Q9NX63 2-227, limits assumed)
T1 construct: also called NP_001304106.1 (+1)
T1 sequence (looked up): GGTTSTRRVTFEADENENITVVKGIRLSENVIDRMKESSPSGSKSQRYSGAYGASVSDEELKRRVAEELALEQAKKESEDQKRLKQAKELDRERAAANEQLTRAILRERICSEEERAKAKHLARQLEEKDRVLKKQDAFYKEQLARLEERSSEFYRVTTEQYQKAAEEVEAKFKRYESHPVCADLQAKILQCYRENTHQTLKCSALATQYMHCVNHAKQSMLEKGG

T2: TGM1 (human, UniProt P22735 1-817, limits assumed)
T2 construct: also called NP_000350.1
T2 sequence (looked up): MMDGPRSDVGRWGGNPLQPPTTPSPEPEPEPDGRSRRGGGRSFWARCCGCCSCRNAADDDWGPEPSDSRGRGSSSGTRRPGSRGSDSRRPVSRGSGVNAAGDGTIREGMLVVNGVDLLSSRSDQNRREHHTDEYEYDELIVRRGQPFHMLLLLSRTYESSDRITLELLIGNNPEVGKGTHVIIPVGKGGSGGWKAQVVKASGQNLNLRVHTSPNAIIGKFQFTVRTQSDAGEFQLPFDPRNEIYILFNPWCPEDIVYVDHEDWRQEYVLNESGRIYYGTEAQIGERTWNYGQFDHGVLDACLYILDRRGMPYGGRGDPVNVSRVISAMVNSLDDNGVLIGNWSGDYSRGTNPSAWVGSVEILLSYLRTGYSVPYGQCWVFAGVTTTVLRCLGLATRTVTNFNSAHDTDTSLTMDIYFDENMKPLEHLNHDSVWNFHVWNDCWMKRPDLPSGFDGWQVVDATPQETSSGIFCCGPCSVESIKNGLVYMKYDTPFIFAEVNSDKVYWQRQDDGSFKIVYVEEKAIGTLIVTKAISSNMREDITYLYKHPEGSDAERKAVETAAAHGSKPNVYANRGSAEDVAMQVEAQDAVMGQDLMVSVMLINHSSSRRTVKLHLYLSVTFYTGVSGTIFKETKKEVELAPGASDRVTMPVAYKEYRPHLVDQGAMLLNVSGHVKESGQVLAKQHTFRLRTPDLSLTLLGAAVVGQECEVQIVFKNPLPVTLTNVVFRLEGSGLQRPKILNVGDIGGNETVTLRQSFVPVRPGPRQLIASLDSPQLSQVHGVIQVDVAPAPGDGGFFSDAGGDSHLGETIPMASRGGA


How the values were obtained:
Assay in all cases: co-IP with anti-FLAG, N-FLAG B3GNT2, mass spectrometry
CHCHD3 = target: T1, CHCHD3
TGM1 = target: T2, TGM1
LAMC1 = target: T3, LAMC1 (human, UniProt P11047 34-1609)
T3 construct: also called NP_002284.3
T3 sequence (P11047 34-1609 limits assumed): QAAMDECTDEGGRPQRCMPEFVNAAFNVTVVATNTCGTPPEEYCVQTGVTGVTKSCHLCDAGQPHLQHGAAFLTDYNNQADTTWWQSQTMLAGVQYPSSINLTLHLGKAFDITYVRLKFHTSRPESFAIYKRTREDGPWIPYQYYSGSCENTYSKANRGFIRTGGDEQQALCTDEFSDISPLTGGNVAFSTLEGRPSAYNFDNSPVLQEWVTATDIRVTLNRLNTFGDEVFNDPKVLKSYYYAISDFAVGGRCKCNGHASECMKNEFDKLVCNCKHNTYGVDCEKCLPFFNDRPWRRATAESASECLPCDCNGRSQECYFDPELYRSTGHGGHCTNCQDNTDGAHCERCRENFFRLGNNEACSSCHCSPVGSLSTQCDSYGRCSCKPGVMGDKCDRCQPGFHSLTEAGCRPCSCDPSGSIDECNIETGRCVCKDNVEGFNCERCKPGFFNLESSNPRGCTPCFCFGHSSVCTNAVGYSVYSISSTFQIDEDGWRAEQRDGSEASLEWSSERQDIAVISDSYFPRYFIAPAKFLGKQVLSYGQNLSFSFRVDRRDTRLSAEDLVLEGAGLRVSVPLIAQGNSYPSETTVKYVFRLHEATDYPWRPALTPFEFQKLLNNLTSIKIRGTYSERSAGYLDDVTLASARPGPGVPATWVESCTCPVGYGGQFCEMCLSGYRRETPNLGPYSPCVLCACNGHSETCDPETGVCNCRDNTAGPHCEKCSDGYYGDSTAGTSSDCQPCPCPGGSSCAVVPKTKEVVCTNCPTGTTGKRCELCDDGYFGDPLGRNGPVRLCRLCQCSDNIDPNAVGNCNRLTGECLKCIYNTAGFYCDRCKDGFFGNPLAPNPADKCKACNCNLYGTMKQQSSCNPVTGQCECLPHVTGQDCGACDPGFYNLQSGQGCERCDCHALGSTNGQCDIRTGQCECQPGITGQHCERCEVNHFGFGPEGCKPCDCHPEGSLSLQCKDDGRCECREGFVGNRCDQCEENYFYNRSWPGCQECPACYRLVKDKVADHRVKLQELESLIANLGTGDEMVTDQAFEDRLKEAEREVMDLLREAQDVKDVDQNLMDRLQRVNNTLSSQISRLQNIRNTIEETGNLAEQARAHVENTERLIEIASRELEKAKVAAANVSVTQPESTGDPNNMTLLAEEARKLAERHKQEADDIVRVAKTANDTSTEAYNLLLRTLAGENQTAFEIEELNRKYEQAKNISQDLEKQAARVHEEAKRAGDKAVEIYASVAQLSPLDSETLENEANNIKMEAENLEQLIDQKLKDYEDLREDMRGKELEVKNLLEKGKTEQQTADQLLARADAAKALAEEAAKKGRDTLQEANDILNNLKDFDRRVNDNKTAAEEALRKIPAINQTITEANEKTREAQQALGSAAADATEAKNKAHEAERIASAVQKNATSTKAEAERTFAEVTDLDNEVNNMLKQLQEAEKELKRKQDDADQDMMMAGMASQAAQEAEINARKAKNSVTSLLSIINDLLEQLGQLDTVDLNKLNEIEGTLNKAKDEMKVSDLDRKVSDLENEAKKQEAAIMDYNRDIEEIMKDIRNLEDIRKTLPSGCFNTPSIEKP

Binder	co-IP mass spectrometry count (CHCHD3)	co-IP/MS count, N-term FLAG (TGM1)	co-IP/MS count, N-term FLAG (LAMC1)
N-terminal FLAG tagged B3GNT2 (enzyme, human, UniProt Q9NY97 1-397, looked up, FLAG-tagged ORF overexpressed in cells; pulled down from lysate with mouse anti-FLAG; also called N-FLAG B3GNT2; N-term FLAG; not shown: N-terminal FLAG tag) MSVGRRRIKLLGILMMANVFIYFIMEVSKSSSQEKNGKGEVIIPKEKFWKISTPPEAYWNREQEKLNRQYNPILSMLTNQTGEAGRLSNISHLNYCEPDLRVTSVVTGFNNLPDRFKDFLLYLRCRNYSLLIDQPDKCAKKPFLLLAIKSLTPHFARRQAIRESWGQESNAGNQTVVRVFLLGQTPPEDNHPDLSDMLKFESEKHQDILMWNYRDTFFNLSLKEVLFLRWVSTSCPDTEFVFKGDDDVFVNTHHILNYLNSLSKTKAKDLFIGDVIHNAGPHRDKKLKYYIPEVVYSGLYPPYAGGGGFLYSGHLALRLYHITDQVHLYPIDDVYTGMCLQKLGLVPEKHKGFRTFDIEEKNKNNICSYVDLMLVHSRKPQEMIDIWSQLQSAHLKC	16	–	–
N-terminal FLAG tagged B3GNT2 (enzyme, human, UniProt Q9NY97 1-397, looked up, FLAG-tagged ORF overexpressed in A375 cells; pulled down from the lysate with mouse anti-FLAG; also called N-FLAG B3GNT2; N-term FLAG; not shown: N-terminal FLAG tag) MSVGRRRIKLLGILMMANVFIYFIMEVSKSSSQEKNGKGEVIIPKEKFWKISTPPEAYWNREQEKLNRQYNPILSMLTNQTGEAGRLSNISHLNYCEPDLRVTSVVTGFNNLPDRFKDFLLYLRCRNYSLLIDQPDKCAKKPFLLLAIKSLTPHFARRQAIRESWGQESNAGNQTVVRVFLLGQTPPEDNHPDLSDMLKFESEKHQDILMWNYRDTFFNLSLKEVLFLRWVSTSCPDTEFVFKGDDDVFVNTHHILNYLNSLSKTKAKDLFIGDVIHNAGPHRDKKLKYYIPEVVYSGLYPPYAGGGGFLYSGHLALRLYHITDQVHLYPIDDVYTGMCLQKLGLVPEKHKGFRTFDIEEKNKNNICSYVDLMLVHSRKPQEMIDIWSQLQSAHLKC	–	17	0
